Reference: patent publication US20210087258A1 (UNIVERSITY OF TOKYO, published 2021)

T1: P1-2 domain of VP1 of human norovirus (GII.4 strain) (human norovirus (GII.4 strain))
T1 construct: also called VP1 P1-2 domain
T1 chain: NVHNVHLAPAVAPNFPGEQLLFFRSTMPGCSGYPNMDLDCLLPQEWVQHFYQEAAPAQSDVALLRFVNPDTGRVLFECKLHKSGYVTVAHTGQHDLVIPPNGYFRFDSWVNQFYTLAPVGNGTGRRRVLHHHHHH


Target: T1, P1-2 domain of VP1 of human norovirus …
Experiment: Western blot of denatured VP1 domains

Binder	binding result
KVP-7C6 (VHH, Llama VHH (nanoantibody) expressed in E. coli from pMEK222 (FLAG tag and His tag); not shown: FLAG tag and His tag from vector pMEK222) VHH: EVQLVESGGGLVQAGGSLRLSCAASGRTFGPNVMGWYRQAPGKQRELVASKTSGRLSNYADSVKGRFAISRDFAKNTLYLQMNNLRPDDTAVYYCRLWDSARSTEYWGQGTQVTVSS	no binding (tested: 10 µg/ml)
KVP-12B8 (VHH, Llama VHH (nanoantibody) expressed in E. coli from pMEK222 (FLAG tag and His tag); also called IC VP-12B8; not shown: FLAG tag and His tag from vector pMEK222) VHH: EVQLVESGGGSVQSGGSLRLSCAASGYPFSDNAMGWYRQAPGNQRELVATITNSNSTKYADSVKGRFTISRDSAKNTIYLEMNSLKPEDTAIYYCRIERTGRTSIKWTYWGQGTQVTVSS	no binding (tested: 10 µg/ml)
